Assay in all cases: fluorescence anisotropy
In data set [1] the target is T1, Prp2 (UniProt P20095 1-876).
T1 sequence: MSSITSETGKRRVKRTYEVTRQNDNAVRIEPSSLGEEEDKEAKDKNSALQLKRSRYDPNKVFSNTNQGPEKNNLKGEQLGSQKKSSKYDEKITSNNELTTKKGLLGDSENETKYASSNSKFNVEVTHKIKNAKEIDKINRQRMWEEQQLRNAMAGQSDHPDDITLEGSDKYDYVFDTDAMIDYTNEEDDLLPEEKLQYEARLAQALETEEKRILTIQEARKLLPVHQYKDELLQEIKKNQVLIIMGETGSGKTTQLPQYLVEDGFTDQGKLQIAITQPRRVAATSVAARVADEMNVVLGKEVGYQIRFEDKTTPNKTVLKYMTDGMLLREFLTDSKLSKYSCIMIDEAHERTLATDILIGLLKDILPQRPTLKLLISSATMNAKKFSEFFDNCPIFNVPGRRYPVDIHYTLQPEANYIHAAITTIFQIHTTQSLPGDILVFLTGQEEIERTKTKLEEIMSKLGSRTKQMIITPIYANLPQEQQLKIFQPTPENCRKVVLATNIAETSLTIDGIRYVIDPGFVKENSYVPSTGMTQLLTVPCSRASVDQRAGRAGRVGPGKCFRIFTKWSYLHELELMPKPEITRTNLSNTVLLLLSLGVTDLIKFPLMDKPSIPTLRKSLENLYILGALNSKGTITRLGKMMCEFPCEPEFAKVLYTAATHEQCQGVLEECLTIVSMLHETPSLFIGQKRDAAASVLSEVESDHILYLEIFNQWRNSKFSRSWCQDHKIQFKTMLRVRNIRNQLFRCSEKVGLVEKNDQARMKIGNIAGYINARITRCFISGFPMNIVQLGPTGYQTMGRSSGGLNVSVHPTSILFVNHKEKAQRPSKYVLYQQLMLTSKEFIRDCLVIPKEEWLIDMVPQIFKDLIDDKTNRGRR

The target of data set [2] is T1, Prp2. The source holds these as a separate data set.
For data set [3], the target named is T2, Spp2 (UniProt Q02521 36-185).
T2 sequence: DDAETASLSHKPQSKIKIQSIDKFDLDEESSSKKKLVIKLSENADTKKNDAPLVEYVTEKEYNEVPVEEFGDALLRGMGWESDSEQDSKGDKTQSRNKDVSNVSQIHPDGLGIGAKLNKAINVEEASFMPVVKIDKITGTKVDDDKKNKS

Data set [4] concerns the target T3, Prp2;Spp2 (Saccharomyces cerevisiae?;Saccharomyces …, UniProt P20095;Q02521 1-876;36-185, |).
T3 sequence 1: T1 sequence
T3 sequence 2: T2 sequence

Where two headings read alike, the source gives them in different places.

B1: 24-nt ssRNA (ssRNA)
RNA: GGCCGCGAGAAAAAAAAAAAAAAA
As to B1, the Kd in data set [1] worked out at 53 ± 5 nM; in data set [2], 70 ± 11 nM. In addition, the binding result was “no binding” in data set [3] and “binds” in data set [4].

Values taken from paper PMC4285774.
